Data on 5 molecules can be found in patent publication US20220041711A1.

B1: anti-LAIR-1 antibody ch57D12 (antibody, V domains shown)
VH: QVQLQQSGAELARPGASVNLSCRASGYSFTSFGISWVKQRTGQGLEWIGEIYPRSDNTFYNEKFKGKATLTADKSSSTAYMELRSLTSEDSAVYFCARHFGSSSFDYWGQGTTLTVSS
VL: ENVLTQSPPIMAASLGQKVTMTCSASSSVSSIYFHWYQQKSGTSPKPLIHRASNLASGVPARFSGSGSGTSYSLTISSVEAEDDATYYCQQWSGYPLTFGGGTKLEIK
B2: humanized anti-LAIR-1 antibody Hz47H1.v4 (antibody, human IgG1, kappa, N297G, V domains shown)
VH: EVQLVESGGGLVQPGGSLRLSCAASGFTFNINAMNWVRQAPGKGLEWVARIRTKNYNYATFYADSVKDRFTISRDDSKNSLYLQMNSLKTEDTAVYYCVRDRAGFFAYWGQGTTVTVSS
VL: DIQMTQSPSSLSASVGDRVTITCLASQTIGTWLGWYQQKPGKAPKLLIYAATSLAEGVPSRFSGSGSGTDFTLTISSLQPEDFATYYCQQLYSTPLTFGGGTKVEIKR
B3: humanized anti-LAIR-1 antibody Hz62G10.v1 (antibody, human IgG1, kappa, N297G, V domains shown)
VH: EVQLVESGGGLVKPGGSLRLSCAASGFTFNINAMNWVRQAPGKGLEWVARIRTKNNNFATYYADSVKDRFTISRDDSKNTLYLQMNSLKTEDTAVYYCVRGPYFDYWGQGTLVTVSS
VL: DIQMTQSPSSLSASVGDRVTITCLASQTIGTWLAWYQQKPGKAPKLLIYAATSLADGVPSRFSGSGSGTDFTLTISSLQPEDFATYYCQQLYSTPYTFGGGTKVEIKR
B4: anti-LAIR-1 antibody ch47H1 (antibody, V domains shown)
VH: EVQLVETGGGLVQPKGSLKLSCAASGFTFNINAMNWVRQAPGKGLEWVARIRTKNNNYATFYADSVKDRFTISRDDSQSMLYLQMNNLKTDDTAMYYCVRDRAGFFAYWGQGTPVTVSA
VL: DIQMTQSPASQSASLGESVTITCLASQTIGTWLGWYRQKPGKSPQLLIYAATSLADGVPSRFSGSGSGTKFSFKISSLQAEDFVIYYCQQLYSTPLTFGSGTKLEIK
B5: anti-LAIR-1 antibody ch62G10 (antibody, V domains shown)
VH: EVQLVETGGGLVQPKGSLKLSCATSGFTFNINAMNWVRQAPGKGLEWVARIRTKNNNFATYYADSVKDRFTISRDDSQSMLYLQMNNLKTEDTAMYYCVRGPYFDYWGQGTTLTVSS
VL: DIQMTQSPASQSASLGESVTITCLASQTIGTWLAWYQQKPGKSPQLLIYAATSLADGVPSRFSGSGSGTKFSFKISNLQAEDFVTYYCQQLYSTPYTFGGGTKLEIK

Sequence of cyno LAIR-1-Fc (cynomolgus monkey) (chain, as listed by the source limits assumed, form in doubt): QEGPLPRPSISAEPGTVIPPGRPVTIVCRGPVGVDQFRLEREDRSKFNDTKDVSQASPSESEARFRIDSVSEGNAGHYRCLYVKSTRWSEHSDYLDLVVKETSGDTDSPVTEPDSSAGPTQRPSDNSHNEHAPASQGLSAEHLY

The assay concerns the target cyno LAIR-1-Fc (cynomolgus monkey). The experiment in a line: ELISA blocking: plate coated with 5 µg/mL human collagen type 1, antibody titrated, 1 µg/mL biotinylated cyno LAIR-1-Fc, streptavidin-HRP, OD650. (In an ELISA, binding on a coated surface is turned into a signal by an enzyme label.)
Regarding B1, the IC50 (read off the curve) stood at 6 nM.
In turn, B2 yielded an IC50 (read off the curve) of 3 nM.
As for B3, the IC50 (read off the curve) came out at 3 nM.
Molecule B4 registered an IC50 (read off the curve) of 3 nM.
B5 returned an IC50 (read off the curve) of 3 nM.
